Source: the RNAGym collection of RNA variant scans (doi:10.1073/pnas.2313332121)

B1: TPR t1 (parent)
chain: GACCAAUCUGCCCUCAGAGCUCGAGAACAUCUUCGGAUGCAGAGGAGGCAGGCUUCGGUGGCGCGAUAGCGCCAACGUCCUCAACCUCCAAUGCAUCCCACCACAUGAUGAUGCCUGAAGAGCCUUGGUUUUUUG

Variants of: B1
Assay: polymerase ribozyme fitness, log enrichment relative to wild type (log ratio); higher = more active; in vitro selection for triplet polymerase activity
How it was run: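 After PCR construction and transcription, each subunit's mutant library from a heterodimeric triplet polymerase ribozyme was annealed with a biotinylated primer, the partner subunit and triplets. Incubation was frozen, at −7 °C, and extended constructs were gel-excised, bound to streptavidin beads and amplified by RT-PCR, in one selection round done in triplicate. Fitness is the logarithm of a genotype's enrichment divided by that of the wild type, from inverse-variance-weighted replicate averages of Illumina-sequenced inputs and outputs. The base of the logarithm is 2, and genotypes needed ≥10 input reads and ≥1 read per output.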

Row | Variant | polymerase ribozyme fitness (log ratio)
1 | C8A U9G | -0.0103
2 | C8G G44A C101U | -0.462
3 | C8G U96A | 0.0383
4 | C8A C15A G52C C80A | -4.36
5 | C8G C11U C40U A90G C97U U129G | -1.14
6 | C8G G61C C72A C97U U130A | 0.551
7 | C8A C56U | 0.138
8 | U7G C80A C124A | -1.1
9 | C8G G58C A75C A108U U132A | -5.79
10 | U7G G10A A41G C79A C80A C115A | -3.95
11 | C8G C28A C72G | -3.76
12 | C8A A27G C56G U59G G113U | -4.68
13 | U7G G47A C56A C70G | -5.1
14 | C8A C115A | 0.286
15 | C8A C72A G93C | 0.271
16 | C8G C76A C82A C114G | -4.44
17 | C8A C85U | -0.102
18 | C8G G71A C72A C102A | -3.77
19 | C8U A18U C53U C79G G93C U130G | -4.48
20 | U7G U32A A46U G77A C104A A105U C123G | -4.45
21 | C8A C70A | -0.98

Row | Variant | polymerase ribozyme fitness (log ratio)
22 | C8G C79U G110C | -4.01
23 | C8G C12A G39A G61U A111U U130A | -2.24
24 | C8G G36C A84U C115U G122U | -1.01
25 | C8G C123A | 0.956
26 | C8G G45A G52U C53A C98U G110A G120C U129A | -6.11
27 | U7G U55A G58A G63U C98A A105U G120A | -5.94
28 | C8A U30G C115U U130G | -5.92
29 | C8A C79U C98G C114U | -6.7
30 | U7G U32A G39U G127C U130C | -5.02
31 | C8A C11G C13U C20A C49G | -3.3
32 | C8G C13G A37C G52C C86U | -2.49
33 | C8G C34U G39U G58A A84U | -5.29
34 | C8G G45C G48A U54G | 0.0312
35 | C8A A29U G63A C88U A91U C123U | -3.81
36 | C8A A18C C22G | -4.25
37 | C8G G48A G128U | -2.01
38 | C8G G10U A16C G77U U81A C85A | -3.62
39 | C8A A41U G61A C86A | -1.24
40 | C8U C15G A46U G113A | -5.27
41 | C8A U9G C62A | -0.773
42 | C8U C12A G35U G45C C53G C104U | -6.79

Row | Variant | polymerase ribozyme fitness (log ratio)
43 | C8A C79G C85G | -2.78
44 | U7G C73U U78A | 0.634
45 | U7G C98U | -0.713
46 | C8A C12U A46C G93A C115A | 0.651
47 | C8A C15U G47C G63A C98A C114U G117A U129G | -7.35
48 | C8G C62A C94A G120U | 0.318
49 | C8G G39A | -0.708
50 | C8G U14A G58C | -0.0186
51 | C8G C11A U96G C97G U131G | -5.45
52 | C8G C40A | -1.11
53 | C8G C20U C89A A100U C102A | -5.22
54 | U7G U9A G10C A18G A29C | -4.02
55 | C8A C11A C82A G93A | -0.542
56 | C8A A111U | -1.79
57 | C8A A111C | 0.0486
58 | C8G C98G | -5.23
59 | C8G C20U A68G G113C | -5.52
60 | C8A A83C A100C | -0.702
61 | U7G G77U | 0.185
62 | C8G A18C G36U C72A U78G C82A C85G | -5.25
63 | C8G C85A A121U | 1.35

Row | Variant | polymerase ribozyme fitness (log ratio)
64 | C8G C11U C70A C94U | -1.28
65 | C8A C56G A91C C123A | 0.619
66 | C8G C72G C82A C102U | -1.73
67 | C8G U32C A66U | -0.651
68 | C8G C56A G77A | -0.27
69 | C8G G45A C56U C72U C94A C101A | -2.54
70 | C8G G44C A84C C115U | -1.3
71 | C8A C28A G45A C56G G69U | -2.82
72 | C8A C124A | 2.16
73 | C8G C12A C20U A37C U92A G113U | -1.85
74 | C8U A95G C102U U106A | -3.3
75 | C8A G120U | 0.91
76 | C8G C73G G128A | -1.19
77 | C8U A27U C76G U96G | -3.38
78 | C8U C15A A119G | 0.435
79 | C8U A111C | 0.776
80 | U7G C80U | 0.145
81 | C8A G48A C89U C124U | 1.22
82 | C8G A24G C72G C97G C115G | -4.32
83 | C8G A16U A90U | -0.236
